From paper PMC7714071, “Interaction of amyloid beta with humanin and acetylcholinesterase is modulated by ATP” (FEBS Open Bio, 2020)

Tested on: AChE-Aβ complex (H1299 cell-conditioned media)
Test: ELISA, AChE found in a complex with Aβ in H1299 cell-conditioned media
Format: binding, human
Conditions: Fig. 5C,D
Method: Human NSCLC cell lines, A549 (ATCC CCL‐185) and H1299 (ATCC CRL‐5803), were purchased from the American Type Culture Collection (ATCC, Manassas, VA, USA). Cells were seeded as we reported earlier in 5 mL HyClone Dulbecco's modified Eagle's medium/nutrient mixture F‐12 (DMEM/F12) (GE Healthcare Life Sciences, Pittsburgh, PA, USA), supplemented with 10% Fetalgro bovine growth serum (FBS; RMBIO, Missoula, MT, USA), 50 U·mL^−1 penicillin, and […] streptomycin (Invitrogen, Life Technologies, Carlsbad, CA, USA) in 25‐cm^2 tissue culture flasks, and allowed to grow overnight in an incubator at 37 °C, 95% humidity, and 5% CO2. The cells were counted after trypan blue staining, with a hemocytometer.
ELISAs were carried out as we previously reported. […] TBST was then used to wash the wells 4× before proceeding in one of two ways: (a) biotinylated samples were analyzed by adding 100 µL streptavidin–HRP conjugate in TBST (1 : 2500 dilution) to the samples followed by incubation for 3 h at RT on a shaker, or (b) samples without biotin were analyzed by adding 100 µL TBST containing the primary antibody as per the manufacturer's recommendation, incubating for 3 h at RT on a shaker, followed by washing the wells 4× with TBST. […] The reaction was stopped with 100 µL 2 M H2SO4 after incubating at RT for 0.5–15 min, resulting in a yellow color change, measured by absorbance at 450 nm. […]

B1: acetylcholinesterase (protein)
chain: EGREDAELLVTVRGGRLRGIRLKTPGGPVSAFLGIPFAEPPMGPRRFLPPEPKQPWSGVVDATTFQSVCYQYVDTLYPGFEGTEMWNPNRELSEDCLYLNVWTPYPRPTSPTPVLVWIYGGGFYSGASSLDVYDGRFLVQAERTVLVSMNYRVGAFGFLALPGSREAPGNVGLLDQRLALQWVQENVAAFGGDPTSVTLFGESAGAASVGMHLLSPPSRGLFHRAVLQSGAPNGPWATVGMGEARRRATQLAHLVGCPPGGTGGNDTELVACLRTRPAQVLVNHEWHVLPQESVFRFSFVPVVDGDFLSDTPEALINAGDFHGLQVLVGVVKDEGSYFLVYGAPGFSKDNESLISRAEFLAGVRVGVPQVSDLAAEAVVLHYTDWLHPEDPARLREALSDVVGDHNVVCPVAQLAGRLAAQGARVYAYVFEHRASTLSWPLWMGVPHGYEIEFIFGIPLDPSRNYTAEEKIFAQRLMRYWANFARTGDPNEPRDPKAPQWPPYTAGAQQYVSLDLRPLEVRRGLRAQACAFWNRFLPKLLSATDTLDEAERQWKAEFHRWSSYMVHWKNQFDHYSKQDRCSDL
With B1 the “AChE detected in complex with Aβ” value was “No AChE was detected above background”.
